Results from the supplement of paper PMC7125110.
± gives the standard error. For some assays here: Fewer inactive variants are shown than the library holds.

B1: glmS ribozyme (parent)
chain: AUAAAAGCGCCAGAACUACAGAAAUGUAGUUGACGAGGAGGAGGUUUAUCGAAUUUUCGGCGGAUGCCUCCAAA

Legend:
Conditions in all cases: with glucosamine-6-phosphate
glucosamine-6-phosphate [1] = variants of: B1; experiment: kcat; higher = faster cleavage; RNA array
Procedure, shortened: (§1)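 Barcoded ribozyme variants were transcribed in situ on sequenced MiSeq chips by E. coli RNA polymerase. At 37 °C, a hybridised Cy3 probe tracked them while glucosamine-6-phosphate (40 μM to 10 mM) in HEPES/KCl/Mg(OAc)2 buffer flowed in and tiles were imaged over ~14 h. Per-tile medians of signals normalised to baseline and to non-cleaving reference variants were fit to one- or two-exponential decays, giving kobs. kcat and KM came from weighted Michaelis–Menten fits across concentrations.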

glucosamine-6-phosphate [2] = variants of: B1; experiment: KM; higher = weaker cofactor use; RNA array
Procedure, shortened: as §1

glucosamine-6-phosphate [3] = variants of: B1; experiment: self-cleavage kobs at 40 uM GlcN6P; higher = faster cleavage; RNA array
Procedure, shortened: as §1

glucosamine-6-phosphate [4] = variants of: B1; experiment: self-cleavage kobs at 640 uM GlcN6P; higher = faster cleavage; RNA array
Procedure, shortened: as §1

glucosamine-6-phosphate [5] = variants of: B1; experiment: self-cleavage kobs at 2500 uM GlcN6P; higher = faster cleavage; RNA array
Procedure, shortened: as §1

glucosamine-6-phosphate [6] = variants of: B1; experiment: self-cleavage kobs at 10000 uM GlcN6P; higher = faster cleavage; RNA array
Procedure, shortened: as §1

glucosamine-6-phosphate [7] = variants of: B1; experiment: self-cleavage kobs at 160 uM GlcN6P; higher = faster cleavage; RNA array
Procedure, shortened: as §1

Row | Variant | kcat (glucosamine-6-phosphate [1]) [s⁻¹] | KM (glucosamine-6-phosphate [2]) [mM] | self-cleavage kobs at 40 uM GlcN6P (glucosamine-6-phosphate [3]) [s⁻¹] | self-cleavage kobs at 640 uM GlcN6P (glucosamine-6-phosphate [4]) [s⁻¹] | self-cleavage kobs at 2500 uM GlcN6P (glucosamine-6-phosphate [5]) [s⁻¹] | self-cleavage kobs at 10000 uM GlcN6P (glucosamine-6-phosphate [6]) [s⁻¹] | self-cleavage kobs at 160 uM GlcN6P (glucosamine-6-phosphate [7]) [s⁻¹]
1 | G13C A42G | 0.00017 ± 1.8e-05 | 4.03 ± 0.92 | < 1e-05 | 3.16e-05 ± 1.6e-05 | 6.19e-05 ± 1.3e-05 | 0.000123 ± 1.8e-05 | 
2 | A14C A53G | 0.00897 ± 0.0044 |  | 0.00012 ± 1.8e-05 | 0.00116 ± 0.00015 | 0.0024 ± 0.00037 | 0.00721 ± 0.001 | 0.000245 ± 3.7e-05
3 | G13A G32C | 0.00056 ± 0.00021 |  |  | 6.56e-05 ± 8.7e-06 | 0.000136 ± 1.8e-05 | 0.000388 ± 5.3e-05 | 
4 | G13C A52G | 1.51e-05 ± 1.5e-06 | 3.66 ± 1 |  |  |  |  | 
5 | A12U C68G | 0.000191 ± 2.7e-05 | 0.624 ± 0.23 |  | 8.22e-05 ± 7.3e-06 | 0.00016 ± 1.2e-05 | 0.000186 ± 1.6e-05 | 5.38e-05 ± 6.4e-06
6 | G13A C68G | 1.81e-05 ± 5e-06 |  |  |  |  |  | 
7 | A14C C68G | 2.74e-05 ± 5.8e-06 |  |  | 4.49e-05 ± 1.5e-05 |  | 2.58e-05 ± 8.4e-06 | 
8 | A12U G13A C50G C67U | 0.000171 ± 2.5e-05 |  | 0.000107 ± 2.3e-05 | 0.000169 ± 4.2e-05 | 0.000208 ± 3.6e-05 | 0.000124 ± 3.4e-05 | 0.000201 ± 5.7e-05
9 | G13U U46G A52C C67U C70G | 2.41e-05 ± 6.8e-06 |  |  |  |  |  | 
10 | G13U U69G | 2.13e-05 ± 6.6e-06 |  |  |  |  |  | 
11 | G13U U69A | 4.51e-05 ± 1.2e-05 |  |  |  | 6.1e-05 ± 1.3e-05 | 3.28e-05 ± 1.1e-05 | 
12 | G13U U45A | 0.00214 ± 0.00039 | 2.01 ± 0.49 | 4.66e-05 ± 2.1e-05 | 0.000543 ± 0.00015 | 0.00117 ± 0.00036 |  | 0.000142 ± 5.1e-05
13 | A12U G37C | 0.000148 ± 1.2e-05 | 4.21 ± 0.79 |  |  | 5.79e-05 ± 8.6e-06 | 0.000104 ± 9.8e-06 | < 1e-05
14 | A12U G37A | 0.0147 ± 0.0035 | 4.7 ± 1.5 | 0.000169 ± 2.3e-05 | 0.00168 ± 0.00025 | 0.00456 ± 0.001 | 0.0103 ± 0.0011 | 0.000398 ± 7.4e-05
15 | A12U A42G U56A C67U | 0.004 ± 0.00068 | 0.794 ± 0.2 | 0.000207 ± 5.3e-05 | 0.00156 ± 0.00046 |  | 0.00431 ± 0.0015 | 
16 | G13A G29U | 5.33e-05 ± 7.9e-06 |  |  |  | 4.84e-05 ± 1e-05 | 4.7e-05 ± 8e-06 | 
17 | A12U A15C | 0.00683 ± 0.003 |  | 0.000955 ± 0.00021 | 0.0109 ± 0.0048 | 0.00385 ± 0.0017 | 0.0117 ± 0.0029 | 

Row | Variant | kcat (glucosamine-6-phosphate [1]) [s⁻¹] | KM (glucosamine-6-phosphate [2]) [mM] | self-cleavage kobs at 40 uM GlcN6P (glucosamine-6-phosphate [3]) [s⁻¹] | self-cleavage kobs at 640 uM GlcN6P (glucosamine-6-phosphate [4]) [s⁻¹] | self-cleavage kobs at 2500 uM GlcN6P (glucosamine-6-phosphate [5]) [s⁻¹] | self-cleavage kobs at 10000 uM GlcN6P (glucosamine-6-phosphate [6]) [s⁻¹] | self-cleavage kobs at 160 uM GlcN6P (glucosamine-6-phosphate [7]) [s⁻¹]
18 | G13U G29A | 0.000411 ± 4.9e-05 | 6.48 ± 1.3 |  | 3.19e-05 ± 1.3e-05 | 0.000121 ± 2.2e-05 | 0.000246 ± 4.2e-05 | 
19 | G13U U65A | 0.000112 ± 6.4e-06 | 1.26 ± 0.27 |  |  | 7.82e-05 ± 1.7e-05 | 9.77e-05 ± 1.8e-05 | 
20 | A14C U31G | 0.0249 ± 0.0019 | 2.55 ± 0.25 | 0.000384 ± 5.3e-05 | 0.00494 ± 0.00094 | 0.0154 ± 0.0047 | 0.0194 ± 0.0031 | 0.00145 ± 0.00024
21 | A14C U31A | 0.0083 ± 0.0041 |  | 0.000559 ± 0.00011 | 0.00413 ± 0.0019 | 0.00676 ± 0.0026 |  | 0.00135 ± 0.00031
22 | A12U U56A U65G | 0.00677 ± 0.0022 | 6.82 ± 3 | 6.29e-05 ± 2e-05 | 0.000445 ± 0.00012 | 0.00177 ± 0.00048 | 0.00413 ± 0.00071 | 0.00018 ± 4e-05
23 | G13U A14G C61A | 1.4e-05 ± 5.4e-06 |  | < 1e-05 |  |  |  | 
24 | G13U C50G | 4.84e-05 ± 1.3e-05 |  | 4.61e-05 ± 1.2e-05 | 6.9e-05 ± 1.6e-05 | 5.61e-05 ± 1.2e-05 | 2.19e-05 ± 1.1e-05 | 8.07e-05 ± 1.7e-05
25 | G13U U31A | 0.000483 ± 4.9e-05 | 3.73 ± 0.74 |  | 6.93e-05 ± 1.3e-05 | 0.000216 ± 3.6e-05 | 0.000346 ± 3.6e-05 | 
26 | G13A C67A | 0.000273 ± 6.7e-05 | 4.49 ± 2.1 |  | 2.62e-05 ± 8.7e-06 | 0.000133 ± 2.4e-05 | 0.000181 ± 2.5e-05 | 
27 | G13U U57C | 4.31e-05 ± 6.8e-06 |  |  |  | 3.41e-05 ± 1.3e-05 | 3.63e-05 ± 1.8e-05 | 
28 | A12G U69C | 0.000893 ± 0.00026 | 3.9 ± 1.9 |  | 0.000152 ± 2e-05 | 0.000243 ± 5.4e-05 | 0.0007 ± 8.2e-05 | 
29 | A12U U57A | 0.00082 ± 0.00011 | 4.04 ± 0.88 |  | 0.000113 ± 2e-05 | 0.000287 ± 5e-05 | 0.000604 ± 8.4e-05 | 4.56e-05 ± 1.7e-05
30 | G13U C58G | 0.000545 ± 0.00027 |  |  | 9.89e-05 ± 1.6e-05 | 0.000127 ± 2e-05 | 0.000381 ± 3.9e-05 | 
31 | A12U G29A A52U | 0.000494 ± 0.00016 |  |  | 4.42e-05 ± 1.6e-05 | 0.00021 ± 6.6e-05 | 0.000309 ± 7.1e-05 | 
32 | A12U C61G | < 1e-05 |  | < 1e-05 |  |  |  | 
33 | A12U C67U | 0.0497 ± 0.018 | 2.25 ± 0.97 | 0.000918 ± 0.0001 | 0.0142 ± 0.0033 | 0.0421 ± 0.012 | 0.0378 ± 0.0074 | 
